The target of this data set is thrombin (UniProt P00734;P00734 328-363;364-622). Nature of the data set: dye-displacement fluorescence; YOYO-1 25 nM, aptamer 10 nM; 20 mM Tris-Cl pH 7.5, 300 mM NaCl, 5 mM MgCl2, 10 mM KCl; 25 C; 30 min incubation with target before dye.

For the molecule ATAGCGGAGGAAGGATACCTGGGGGAGTATAT (structured_DNA) [ATP aptamer], the binding result is “no binding”.
